Source: PMC8924211 (Nature Communications, 2022)
Substitutions are numbered along the chain they refer to.

Legend:
Assay in all cases: AlphaScreen or HTRF; saturation binding: HEK293 cells transfected with SNAP-tagged receptor (WT or mutant) and labelled with SNAP-Lumi4-Tb, incubated with increasing concentrations of galanin-A2 in the presence or absence of 100 uM unlabeled galanin, 1 h at room temperature; HTRF ratio 665 nm/620 nm
Conditions in all cases: one partner purified
[1] = target: T1, SNAP-GAL2R L172^ECL2A (human, UniProt O43603 1-387, L172^ECL2A, Lumi4-Tb on the SNAP tag)
T1 construct: also called L172A; source: HEK293, transfected, on cells; not shown: SNAP tag, N-terminal, kept
T1 sequence (looked up): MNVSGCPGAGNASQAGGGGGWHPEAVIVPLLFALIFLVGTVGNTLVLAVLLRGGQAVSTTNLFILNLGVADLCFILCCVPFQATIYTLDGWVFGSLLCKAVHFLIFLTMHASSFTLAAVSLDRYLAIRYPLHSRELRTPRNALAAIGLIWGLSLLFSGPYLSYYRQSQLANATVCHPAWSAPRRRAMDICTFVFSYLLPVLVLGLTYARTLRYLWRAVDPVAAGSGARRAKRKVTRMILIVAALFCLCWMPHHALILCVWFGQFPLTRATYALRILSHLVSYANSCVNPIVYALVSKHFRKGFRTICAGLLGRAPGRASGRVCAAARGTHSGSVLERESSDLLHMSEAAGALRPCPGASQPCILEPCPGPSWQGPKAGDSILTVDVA

[2] = target: T2, SNAP-GAL2R L255^6.54A (human, UniProt O43603 1-387, L255^6.54A, Lumi4-Tb on the SNAP tag)
T2 construct: also called L255A; source: HEK293, transfected, on cells; not shown: SNAP tag, N-terminal, kept
T2 sequence (looked up): T1 sequence (looked up) with A172L, L255A

[3] = target: T3, SNAP-GAL2R T267^7.28A (human, UniProt O43603 1-387, T267^7.28A, Lumi4-Tb on the SNAP tag)
T3 construct: also called T267A; source: HEK293, transfected, on cells; not shown: SNAP tag, N-terminal, kept
T3 sequence (looked up): T1 sequence (looked up) with A172L, T267A

[4] = target: T4, SNAP-GAL2R R274^7.35A (human, UniProt O43603 1-387, R274^7.35A, Lumi4-Tb on the SNAP tag)
T4 construct: also called R274A; source: HEK293, transfected, on cells; not shown: SNAP tag, N-terminal, kept
T4 sequence (looked up): T1 sequence (looked up) with A172L, R274A

B1: galanin-A2 (full-length galanin labeled with the dye A2 on an additional cysteine at the C-terminal end) (peptide)
peptide: GWTLNSAGYLLGPHAVGNHRSFSDKNGLTSC
modifications: dye A2 on the additional C-terminal cysteine
notes: numbers count on: the mature protein; additional cysteine at the C-terminal end of the peptide, carries the dye A2; source: synthetic peptide (synthesized by Vazyme, China)
B1 gave a Kd [1] of 51.6 nM, a Kd [2] of 55.1 nM and a Kd [3] of 229 nM. It also gave a Kd [4] of 553 nM.
